Test results published in PMC11395016, “The Ubiquitination of Arrestin3 within the Nucleus Triggers the Nuclear Export of Mdm2, Which, in Turn, Mediates the Ubiquitination of GRK2 in the Cytosol” (International Journal of Molecular Sciences, 2024).

Target: T1, FLAG-Mdm2 (UniProt Q00987 1-491)
T1 construct: Mdm2, E3 ubiquitin ligase; source: HEK-293, transfected, in nuclear and cytoplasmic fractions
Assay: co-IP; HEK-293 cells transfected with D2R, GRK2 and FLAG-Mdm2; vehicle or 10 μM dopamine for 2 min; nuclear and cytoplasmic fractions each immunoprecipitated with FLAG beads; blot for GRK2
Details: partners not purified

T1 sequence (Q00987 whole entry): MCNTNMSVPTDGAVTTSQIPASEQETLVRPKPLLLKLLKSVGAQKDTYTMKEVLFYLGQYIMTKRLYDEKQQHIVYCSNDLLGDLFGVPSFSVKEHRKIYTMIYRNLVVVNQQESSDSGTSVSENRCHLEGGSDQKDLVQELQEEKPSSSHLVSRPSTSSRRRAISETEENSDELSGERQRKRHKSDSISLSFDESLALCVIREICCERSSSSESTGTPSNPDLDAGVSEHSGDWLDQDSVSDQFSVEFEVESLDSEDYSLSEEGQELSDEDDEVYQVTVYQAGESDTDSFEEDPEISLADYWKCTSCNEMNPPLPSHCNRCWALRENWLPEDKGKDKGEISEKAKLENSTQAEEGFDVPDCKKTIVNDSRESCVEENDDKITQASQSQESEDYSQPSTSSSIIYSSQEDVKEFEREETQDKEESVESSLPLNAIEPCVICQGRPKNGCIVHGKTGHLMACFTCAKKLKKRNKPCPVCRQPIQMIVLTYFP

B1: GRK2 (enzyme, UniProt P25098 1-689, looked up)
chain: MADLEAVLADVSYLMAMEKSKATPAARASKKILLPEPSIRSVMQKYLEDRGEVTFEKIFSQKLGYLLFRDFCLNHLEEARPLVEFYEEIKKYEKLETEEERVARSREIFDSYIMKELLACSHPFSKSATEHVQGHLGKKQVPPDLFQPYIEEICQNLRGDVFQKFIESDKFTRFCQWKNVELNIHLTMNDFSVHRIIGRGGFGEVYGCRKADTGKMYAMKCLDKKRIKMKQGETLALNERIMLSLVSTGDCPFIVCMSYAFHTPDKLSFILDLMNGGDLHYHLSQHGVFSEADMRFYAAEIILGLEHMHNRFVVYRDLKPANILLDEHGHVRISDLGLACDFSKKKPHASVGTHGYMAPEVLQKGVAYDSSADWFSLGCMLFKLLRGHSPFRQHKTKDKHEIDRMTLTMAVELPDSFSPELRSLLEGLLQRDVNRRLGCLGRGAQEVKESPFFRSLDWQMVFLQKYPPPLIPPRGEVNAADAFDIGSFDEEDTKGIKLLDSDQELYRNFPLTISERWQQEVAETVFDTINAETDRLEARKKAKNKQLGHEEDYALGKDCIMHGYMSKMGNPFLTQWQRRYFYLFPNRLEWRGEGEAPQSLLTMEEIQSVEETQIKERKCLLLKIRGGKQFILQCDSDPELVQWKKELRDAYREAQQLVQRVPKMKNKPRSPVVELSKVPLVQRGSANGL
notes: GPCR kinase 2 (GRK2), plasmid without a named tag; detected with antibodies against GRK2; also called GPCR kinase 2; source: HEK-293, transfected, in nuclear and cytoplasmic fractions
ratio of band intensities in the blot, DA(+)/CF group against the DA(−)/CF group (1.0): 2.4
